Data: patent publication US8546537B2, “Streptavidin having low immunogenicity and use thereof” (The University of Tokyo, priority 2009, dated 2013)
Positions count from the first letter of the chain named. In names and notes the source's numbering stands.

B1: mcSA424: mutant core streptavidin with Y22T, Y83S, R84K, E101D, R103K, E116Q (protein)
core streptavidin subunit: AEAGITGTWTNQLGSTFIVTAGADGALTGTYESAVGNAESRYVLTGRYDSAPATDGSGTALGWTVAWKNNSKNAHSATTWSGQYVGGADAKINTQWLLTSGTTQANAWKSTLVGHDTFTKVKPSAAS
B2: mcSA224: mutant core streptavidin with Y22T, Y83A, R84K, E101D, R103K, E116Q (protein)
core streptavidin subunit: B1 core streptavidin subunit with S71A
B3: mcSA020: mutant core streptavidin with Y83A, R84K, E116Q (protein)
core streptavidin subunit: B1 core streptavidin subunit with T10Y, S71A, D89E, K91R
B4: mcSA314: mutant core streptavidin with Y22S, Y83S, R84K, E101D, R103K, E116N (protein)
core streptavidin subunit: B1 core streptavidin subunit with T10S, Q104N
B5: mcSA010: mutant core streptavidin with Y83A, R84K, E116N (protein)
core streptavidin subunit: B1 core streptavidin subunit with T10Y, S71A, D89E, K91R, Q104N
B6: mcSA214: mutant core streptavidin with Y22S, Y83A, R84K, E101D, R103K, E116Q (protein)
core streptavidin subunit: B1 core streptavidin subunit with T10S, S71A
B7: mcSA114: mutant core streptavidin with Y22S, Y83A, R84K, E101D, R103K, E116N (protein)
core streptavidin subunit: B1 core streptavidin subunit with T10S, S71A, Q104N
B8: mcSA124: mutant core streptavidin with Y22T, Y83A, R84K, E101D, R103K, E116N (protein)
core streptavidin subunit: B1 core streptavidin subunit with S71A, Q104N
B9: mcSA414: mutant core streptavidin with Y22S, Y83S, R84K, E101D, R103K, E116Q (protein)
core streptavidin subunit: B1 core streptavidin subunit with T10S
B10: mcSA324: mutant core streptavidin with Y22T, Y83S, R84K, E101D, R103K, E116N (protein)
core streptavidin subunit: B1 core streptavidin subunit with Q104N
B11: mcSA030: mutant core streptavidin with Y83S, R84K, E116N (protein)
core streptavidin subunit: B1 core streptavidin subunit with T10Y, D89E, K91R, Q104N
B12: mcSA040: mutant core streptavidin with Y83S, R84K, E116Q (protein)
core streptavidin subunit: B1 core streptavidin subunit with T10Y, D89E, K91R
B13: B5209B mouse-scFv-mcSA414: fusion of anti-ROBO1 monoclonal antibody B5209B mouse scFv and mcSA414, SEQ ID NO: 16 (protein, listed as Mus sp.)
chain: MAEVQLVESGGGVVQPGGSLKLSCAASGFTFSTYDMSWVRQTPDKRLELVATINSNGGSTYYPDSVKGRFTSSRDNAKNILYLQMSSLKSEDTAMYYCAREALLRPPYYALDYWGQGTSVTVSSAGGGGSGGGGSGGGGSDILDIQMTQSPASLSASVGETVTITCGASENIYGALTWYQRKQGKSPQLLIYGAINLADDKSSRFSGSGSGRQYSLKISSLHPDDVATYYCQNVLSTPFTFGSGTKLEIKAAGSSGSGSAAEAGITGTWSNQLGSTFIVTAGADGALTGTYESAVGNAESRYVLTGRYDSAPATDGSGTALGWTVAWKNNSKNAHSATTWSGQYVGGADAKINTQWLLTSGTTQANAWKSTLVGHDTFTKVKPSAASGARHHHHHH

Tested on: not listed separately
Experiment: Kinetics analysis of interaction between streptavidin protein and biotin using Biacore biosensor
Type: binding
Settings: Biacore 3000, biotinylated mouse antibody captured, 1:1 binding model
Description: As a ligand (a substance to be attached to a sensor chip) used for a Biacore (registered trademark) biosensor, an anti-mouse IgG antibody (manufactured by GE Healthcare Biosciences) was used. On the other hand, as analytes (substances to be supplied to the flow channel system), a biotinylated mouse antibody and various types of mutant streptavidins were prepared, and intermolecular interaction was then analyzed using Biacore (registered trademark) 3000 (a biosensor based on the principle of surface plasmon resonance; manufactured by GE Healthcare Biosciences). The anti-mouse IgG antibody was immobilized on all of the flow cells of a CM5 sensor chip according to an amine coupling method. The amount of the antibody immobilized on each flow cell was 8000 RU. Subsequently, as references, non-biotinylated mouse antibodies were captured onto Flow Cells 1 and 3, and biotinylated mouse antibodies were captured onto Flow Cells 2 and 4. Various types of streptavidins were loaded in a running buffer (HBS-EP; manufactured by GE Healthcare Biosciences) on Flow Cells 1 and 2, or 3 and 4, at a flow rate of 20 μl/min for 2 minutes. Thereafter, dissociation of each sample was monitored for 7 minutes. Thereafter, a reproduction operation was carried out using a 10 mM glycine-HCl buffer (pH 1.7) (manufactured by GE Healthcare Biosciences), and repeat measurement was then carried out. Using the analysis software BIAevaluation ver. 4.1, a reaction kinetics analysis was performed on a 1:1 binding model based on the obtained sensorgram, so as to calculate an association rate constant (ka) and a dissociation rate constant (kd). A dissociation constant (Kd) was obtained from kd/ka.
The results of the kinetics analysis of the intermolecular interaction of a recombinant streptavidin and a biotin, which was carried out using Biacore (registered trademark) 3000 (a biosensor based on the principle of surface plasmon resonance; manufactured by GE Healthcare Biosciences), are as shown in Table 2.

Dissociation rate constant kd | Molecule | Association rate constant ka
1.12 × 10^−4 S^−1 | B1 | 1.32 × 10^5 M^−1 S^−1
1.01 × 10^−4 S^−1 | B2 | 2.11 × 10^5 M^−1 S^−1
1.60 × 10^−4 S^−1 | B3 | 
1.58 × 10^−4 S^−1 | B4 | 5.99 × 10^5 M^−1 S^−1
8.96 × 10^−5 S^−1 | B5 | 
1.21 × 10^−4 S^−1 | B6 | 2.64 × 10^5 M^−1 S^−1
9.92 × 10^−5 S^−1 | B7 | 3.61 × 10^5 M^−1 S^−1
5.38 × 10^−5 S^−1 | B8 | 3.06 × 10^5 M^−1 S^−1
5.18 × 10^−5 S^−1 | B9 | 2.31 × 10^5 M^−1 S^−1
7.18 × 10^−5 S^−1 | B10 | 3.26 × 10^5 M^−1 S^−1
1.55 × 10^−4 S^−1 | B11 | 

Same assay, conditions: Biacore 3000, obtained from kd/ka; read-out: Dissociation constant Kd

Kd | Molecule
0.845 nM | B1
0.481 nM | B2
0.427 nM | B3
0.264 nM | B4
0.225 nM | B5
0.459 nM | B6
0.274 nM | B7
0.176 nM | B8
0.243 nM | B9
0.22 nM | B10
0.399 nM | B11

Tested on: not listed separately
Experiment: Thermal shift assay of streptavidin proteins
Type: physicochemical
Settings: at 100° C., 10 μM protein, 1×PBS, guanidine-HCl 0 to 2 M, SYPRO Orange
Description: The following 5 types of proteins, a native streptavidin, mcSA040, mcSA072, mcSA314 and mcSA414, which had been purified in accordance with Example 2, were subjected to a thermal shift assay (Vedadi, (2006), Proc Natl Sci USA., 103(43), 15835-15840). Each sample was prepared in a real-time PCR tube (PCR Tube Strip, Flat Cap Strip; manufactured by BIO-RAD), so that the samples could have the following final concentrations. That is, SYPRO Orange was 5000-fold diluted, the concentration of each protein was set at 10 μM, and the buffer was set at 1×PBS. Moreover, for the purpose of accelerating the heat denaturation of each protein, the concentration of a guanidine-HCl solution was set at 0 M, 0.5 M, 1M and 2 M as a final concentration. The reaction volume was set at 20 μl. The CFX96 Real-Time PCR detection system (manufactured by BIO-RAD) was used as a measurement device. As a program mode of the CFX96 Real-Time PCR detection system, a program mode for use in FRET detection was used. The reaction and detection were carried out by a program for increasing the temperature by 0.5° C. every 10 seconds.

Molecule | thermal stability compared with native streptavidin
B12 | thermal stability equivalent to that of the native streptavidin
B4 | thermal stability equivalent to that of the native streptavidin
B9 | thermal stability equivalent to that of the native streptavidin

Biological target: ROBO1 (Homo sapiens, UniProt Q9Y6N7)
Experiment: Isothermal Titration calorimetry (ITC) of B5209B mouse-scFv-mcSA414 and ROBO1
Type: binding
Settings: not given
Description: By Isothermal Titration calorimetry (ITC), the interaction of B5209B mouse-scFv-mcSA414 and ROBO1 was subjected to […] analysis.

Sequence of ROBO1 (Q9Y6N7 26-1651, species assumed): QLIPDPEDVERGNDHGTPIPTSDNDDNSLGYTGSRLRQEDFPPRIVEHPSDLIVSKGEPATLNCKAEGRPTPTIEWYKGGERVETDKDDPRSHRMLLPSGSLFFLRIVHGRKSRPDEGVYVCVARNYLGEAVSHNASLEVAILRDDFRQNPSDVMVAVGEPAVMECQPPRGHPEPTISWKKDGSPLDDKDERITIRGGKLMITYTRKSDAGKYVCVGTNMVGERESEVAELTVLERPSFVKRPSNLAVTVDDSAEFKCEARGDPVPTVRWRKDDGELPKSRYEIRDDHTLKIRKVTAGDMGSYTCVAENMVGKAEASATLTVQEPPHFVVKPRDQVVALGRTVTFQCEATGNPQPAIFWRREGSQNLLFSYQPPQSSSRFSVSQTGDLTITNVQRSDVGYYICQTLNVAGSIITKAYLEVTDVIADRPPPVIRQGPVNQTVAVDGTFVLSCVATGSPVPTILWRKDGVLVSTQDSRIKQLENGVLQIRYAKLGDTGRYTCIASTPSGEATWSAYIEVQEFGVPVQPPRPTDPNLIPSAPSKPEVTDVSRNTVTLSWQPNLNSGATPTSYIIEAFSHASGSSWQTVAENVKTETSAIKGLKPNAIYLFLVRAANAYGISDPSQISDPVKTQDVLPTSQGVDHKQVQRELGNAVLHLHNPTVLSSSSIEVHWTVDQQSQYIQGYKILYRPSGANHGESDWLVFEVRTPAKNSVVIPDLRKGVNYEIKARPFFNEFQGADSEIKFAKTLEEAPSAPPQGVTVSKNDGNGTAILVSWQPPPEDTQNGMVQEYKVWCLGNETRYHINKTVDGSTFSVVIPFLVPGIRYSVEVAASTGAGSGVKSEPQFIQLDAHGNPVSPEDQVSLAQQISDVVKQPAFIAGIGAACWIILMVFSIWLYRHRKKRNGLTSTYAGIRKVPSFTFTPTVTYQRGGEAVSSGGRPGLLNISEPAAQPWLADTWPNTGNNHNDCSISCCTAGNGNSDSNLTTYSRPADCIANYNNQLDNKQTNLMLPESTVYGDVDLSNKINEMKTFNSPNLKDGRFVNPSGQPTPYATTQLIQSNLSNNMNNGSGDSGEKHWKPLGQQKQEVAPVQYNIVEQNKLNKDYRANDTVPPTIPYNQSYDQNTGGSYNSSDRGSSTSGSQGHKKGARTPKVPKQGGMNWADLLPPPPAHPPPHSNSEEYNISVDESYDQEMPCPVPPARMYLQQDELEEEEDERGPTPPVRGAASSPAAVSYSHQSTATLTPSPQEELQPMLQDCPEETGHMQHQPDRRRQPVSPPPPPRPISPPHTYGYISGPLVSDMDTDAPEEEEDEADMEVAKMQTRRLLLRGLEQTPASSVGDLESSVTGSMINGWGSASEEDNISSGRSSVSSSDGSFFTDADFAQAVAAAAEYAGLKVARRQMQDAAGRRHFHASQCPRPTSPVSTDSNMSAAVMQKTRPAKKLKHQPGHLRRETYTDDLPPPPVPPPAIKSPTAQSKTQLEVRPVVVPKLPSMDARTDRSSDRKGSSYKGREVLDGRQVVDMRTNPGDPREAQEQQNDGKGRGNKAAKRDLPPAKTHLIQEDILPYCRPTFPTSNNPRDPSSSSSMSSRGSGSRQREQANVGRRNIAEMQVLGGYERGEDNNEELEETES

binding ratio: molecules of ROBO1 bound to a tetramer | change in ΔH compared with scFV | reduction in affinity compared with scFV | ΔS value compared with scFV | Molecule
2 | no significant change | approximately one order of magnitude | approximately 1/40 | B13

Same assay, conditions: 25° C., PBS

amount of enthalpy change (ΔH) | amount of entropy change (ΔS) | Molecule
-3.85 kcal/mol | −22 J/mol·K | B13

Tested on: not listed separately
Experiment: Differential Scanning calorimetry (DSC) thermal stability
Type: physicochemical
Settings: PBS
Description: By Differential Scanning calorimetry (DSC), the thermal stability of B5209B mouse-scFv-mcSA414 was evaluated. PBS was used as a solvent. […] Accordingly, the temperature necessary for denaturation of the scFV domain of B5209B mouse-scFv-SA is assumed to be Tm 51.4° C., and the temperature necessary for the complete denaturation of a single molecule thereof is assumed to be Tm 108° C. Moreover, since the temperature for dissociation of a streptavidin domain tetramer was not detected, it is assumed that the streptavidin was completely denatured without the dissociation of a tetramer.

Molecule | temperature for dissociation of a streptavidin domain tetramer | temperature necessary for denaturation of the scFV domain (Tm) | temperature necessary for the complete denaturation of a single molecule (Tm)
B13 | not detected | 51.4 °C | 108 °C
